From patent publication US20190225669A1 (ACCELERON PHARMA, published 2019)
Blank lines part the entries; values can stand above or below the binder they belong to.

What was measured:
Test in all cases: Biacore SPR
BMP15 = target: T1, BMP15 (UniProt O95972 268-392)
T1 construct: also called GDF9b
T1 sequence (looked up): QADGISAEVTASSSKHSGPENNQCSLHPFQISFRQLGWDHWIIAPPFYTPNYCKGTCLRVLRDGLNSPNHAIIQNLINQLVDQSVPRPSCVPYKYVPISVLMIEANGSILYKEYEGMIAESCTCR
Procedure: (§1) A Biacore™-based binding assay was used to compare ligand binding selectivity of the BMPRII-Fc:ALK2-Fc heterodimeric complex described above with that of BMPRII-Fc and ALK2-Fc homodimeric complexes. […] Ligands were injected and allowed to flow over the captured receptor protein.

BMP7 = target: T2, BMP7 (UniProt P18075 293-431)
T2 sequence (looked up): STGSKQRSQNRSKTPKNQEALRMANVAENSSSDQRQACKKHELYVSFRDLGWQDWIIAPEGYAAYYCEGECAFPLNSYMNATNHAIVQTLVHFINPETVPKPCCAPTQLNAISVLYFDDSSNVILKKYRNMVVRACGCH
Procedure: as §1

BMP9 = target: T3, BMP9 (UniProt Q9UK05 320-429)
T3 construct: also called GDF2
T3 sequence (looked up): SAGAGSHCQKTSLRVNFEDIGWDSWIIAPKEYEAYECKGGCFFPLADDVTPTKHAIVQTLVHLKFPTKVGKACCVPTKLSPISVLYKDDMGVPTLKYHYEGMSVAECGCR
Procedure: as §1

BMP5 [1] = target: T4, BMP5 (UniProt P22003 317-454, limits assumed)
T4 sequence (looked up): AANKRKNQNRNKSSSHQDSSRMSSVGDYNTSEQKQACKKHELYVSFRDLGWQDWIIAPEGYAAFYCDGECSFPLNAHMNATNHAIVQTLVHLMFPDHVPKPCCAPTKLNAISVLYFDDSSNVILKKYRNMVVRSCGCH
Procedure: as §1

activin B [2] = target: T5, activin B (UniProt P09529 293-407)
T5 sequence (looked up): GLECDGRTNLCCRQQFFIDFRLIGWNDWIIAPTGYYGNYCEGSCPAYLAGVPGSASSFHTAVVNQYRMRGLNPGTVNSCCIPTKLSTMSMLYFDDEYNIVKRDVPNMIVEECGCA
Procedure: as §1

BMP10 [3] = target: T6, BMP10 (UniProt O95393 317-424)
T6 sequence (looked up): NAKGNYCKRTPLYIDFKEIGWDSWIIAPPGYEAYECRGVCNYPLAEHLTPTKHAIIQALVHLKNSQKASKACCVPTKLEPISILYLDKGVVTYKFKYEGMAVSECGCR
Procedure: as §1

GDF3 = target: T7, GDF3 (UniProt Q9NR23 251-364)
T7 sequence (looked up): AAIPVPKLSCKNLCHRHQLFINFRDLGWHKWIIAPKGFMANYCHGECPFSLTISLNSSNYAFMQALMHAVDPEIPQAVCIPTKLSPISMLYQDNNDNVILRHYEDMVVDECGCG
Procedure: (§2) Ligands were injected and allowed to flow over the captured receptor protein.

GDF6 = target: T8, GDF6 (UniProt Q6KF10 336-455, limits assumed)
T8 construct: also called BMP13
T8 sequence (looked up): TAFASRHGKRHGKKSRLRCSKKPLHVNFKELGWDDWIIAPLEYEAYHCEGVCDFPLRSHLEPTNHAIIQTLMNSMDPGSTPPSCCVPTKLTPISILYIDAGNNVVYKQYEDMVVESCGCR
Procedure: as §2

BMP5 [4] = target: T4, BMP5; remark: listed apart in the source
Procedure: as §2

GDF11 = target: T9, GDF11 (UniProt O95390 299-407)
T9 construct: also called BMP11
T9 sequence (looked up): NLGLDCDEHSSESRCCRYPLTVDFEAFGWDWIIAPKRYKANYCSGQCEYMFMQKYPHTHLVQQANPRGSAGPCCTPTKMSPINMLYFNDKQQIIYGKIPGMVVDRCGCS
Procedure: as §2

activin A = target: T10, activin A (UniProt P08476 311-426)
T10 sequence (looked up): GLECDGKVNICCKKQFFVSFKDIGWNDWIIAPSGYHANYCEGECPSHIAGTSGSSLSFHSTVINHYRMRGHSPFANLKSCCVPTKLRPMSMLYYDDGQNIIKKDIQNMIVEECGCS
Procedure: as §2

activin B [5] = target: T5, activin B; remark: listed apart in the source
Procedure: as §2

GDF8 = target: T11, GDF8 (UniProt O14793 267-375)
T11 construct: also called myostatin
T11 sequence (looked up): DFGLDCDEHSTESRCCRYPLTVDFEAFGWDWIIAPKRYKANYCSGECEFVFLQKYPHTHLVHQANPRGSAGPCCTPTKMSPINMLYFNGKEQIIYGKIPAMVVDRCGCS
Procedure: as §2

BMP10 [6] = target: T6, BMP10; remark: listed apart in the source
Procedure: as §2

Kd (BMP15): 1.1 nM | koff (BMP15): 0.011 s⁻¹ | kon (BMP15): 9.6e+06 M⁻¹ s⁻¹ | Kd (BMP7): 0.76 nM | koff (BMP7): 0.012 s⁻¹ | kon (BMP7): 1.5e+07 M⁻¹ s⁻¹ | Kd (BMP9): 0.5 nM | koff (BMP9): 0.0051 s⁻¹ | kon (BMP9): 1e+07 M⁻¹ s⁻¹ | Kd (BMP5 [1]): 2.8 nM | koff (BMP5 [1]): 0.005 s⁻¹ | kon (BMP5 [1]): 1.8e+06 M⁻¹ s⁻¹ | Kd (activin B [2]): 5.2 nM | koff (activin B [2]): 0.0031 s⁻¹ | kon (activin B [2]): 590000 M⁻¹ s⁻¹ | Kd (BMP10 [3]): 0.3 nM | koff (BMP10 [3]): 0.034 s⁻¹ | kon (BMP10 [3]): 1.1e+08 M⁻¹ s⁻¹
B1: BMPRII-Fc:ALK2-Fc heterodimer (Fc fusion)
chain 1: SQNQERLCAFKDPYQQDLGIGESRISHENGTILCSKGSTCYGLWEKSKGDINLVKQGCWSHIGDPQECHYEECVVTTTPPSIQNGTYRFCCCSTDLCNVNFTENFPPPDTTPLSPPHSFNRDETGGGTHTCPPCPAPELLGGPSVFLFPPKPKDTLMISRTPEVTCVVVDVSHEDPEVKFNWYVDGVEVHNAKTKPREEQYNSTYRVVSVLTVLHQDWLNGKEYKCKVSNKALPAPIEKTISKAKGQPREPQVYTLPPSRKEMTKNQVSLTCLVKGFYPSDIAVEWESNGQPENNYKTTPPVLKSDGSFFLYSKLTVDKSRWQQGNVFSCSVMHEALHNHYTQKSLSLSPGK
chain 2: MEDEKPKVNPKLYMCVCEGLSCGNEDHCEGQQCFSSLSINDGFHVYQKGCFQVYEQGKMTCKTPPSPGQAVECCQGDWCNRNITAQLPTKGKSFPGTQNFHLETGGGTHTCPPCPAPELLGGPSVFLFPPKPKDTLMISRTPEVTCVVVDVSHEDPEVKFNWYVDGVEVHNAKTKPREEQYNSTYRVVSVLTVLHQDWLNGKEYKCKVSNKALPAPIEKTISKAKGQPREPQVYTLPPSREEMTKNQVSLTCLVKGFYPSDIAVEWESNGQPENNYDTTPPVLDSDGSFFLYSDLTVDKSRWQQGNVFSCSVMHEALHNHYTQKSLSLSPG
notes: C-terminal Lys optional; also called BMPRII-Fc:ALK2-Fc heterodimeric complex

binding result (GDF3): no binding | binding result (GDF6): no binding | binding result (BMP5 [4]): no binding | binding result (GDF11): no binding | binding result (activin A): no binding | binding result (activin B [5]): no binding | binding result (GDF8): no binding | binding result (BMP10 [6]): no binding | binding result (BMP15): no binding
B2: ALK2-Fc homodimer (Fc fusion, UniProt Q04771 21-123, looked up, not shown: a dimerising Fc or GST)
chain: MEDEKPKVNPKLYMCVCEGLSCGNEDHCEGQQCFSSLSINDGFHVYQKGCFQVYEQGKMTCKTPPSPGQAVECCQGDWCNRNITAQLPTKGKSFPGTQNFHLE
notes: extracellular domain
